Where “and” joins values, the source holds several entries; their conditions need not be identical. Equal entries are not always repeated.
Molecular target: Xop411 p09, major capsid subunit (major coat protein) (Xanthomonas oryzae phage Xop411)
Assay: SDS-PAGE of virion proteins with LC-MS/MS of the bands

With “Xop411 p09, major capsid subunit (major coat protein) (natural protein)” the stoichiometry N was 2 subunits and 6 subunits.

Source: PMC2248197
